Tests used:
H3K36me3 = test: H3K36 demethylase activity of KDM4A variants in transfected cells (immunofluorescence); format: cell-based; design: key: + indicates active; − indicates inactive; +/− indicates partial acitivty; details: KDM4A mutations
Description: The indicated NHF-tagged KDM4A deletion constructs were transfected into RPE cells grown on coverslips in 10 cm dishes using X-tremeGENE 9™ DNA transfection reagent (Roche). H3K36me3 and subcellular localization were assayed by examining transfected cells (positive for HA staining; HA.11 Covance) following fixation in 3.7% PFA in PBS (Whetstine et al., 2006).
All immunofluorescence experiments were performed as in (Black et al., 2013). For the localization experiment a minimum of 50 cells were blinded and scored. For the catalytic activity, cells overexpressing a high level of KDM4A WT or SNP-A482 were analyzed in a non quantitative manner.

H3K9me3 = test: H3K9 demethylase activity of KDM4 variants in transfected cells; format: cell-based; design: key: + indicates active; − indicates inactive; +/− indicates partial acitivty; details: KDM4A mutations

Molecule	H3k36 Demethylase Activity (H3K36me3)	H3k9 Demethylase Activity (H3K9me3)
2A-T289I: KDM4A mutation (protein) MASESETLNPSARIMTFYPTMEEFRNFSRYIAYIESQGAHRAGLAKVVPPKEWKPRASYDDIDDLVIPAPIQQLVTGQSGLFTQYNIQKKAMTVREFRKIANSDKYCTPRYSEFEELERKYWKNLTFNPPIYGADVNGTLYEKHVDEWNIGRLRTILDLVEKESGITIEGVNTPYLYFGMWKTSFAWHTEDMDLYSINYLHFGEPKSWYSVPPEHGKRLERLAKGFFPGSAQSCEAFLRHKMTLISPLMLKKYGIPFDKVTQEAGEFMITFPYGYHAGFNHGFNCAESINFATRRWIEYGKQAVLCSCRKDMVKISMDVFVRKFQPERYKLWKAGKDNTVIDHTLPTPEAAEFLKESELPPRAGNEEECPEEDMEGVEDGEEGDLKTSLAKHRIGTKRHRVCLEIPQEVSQSELFPKEDLSSEQYEMTECPAALAPVRPTHSSVRQVEDGLTFPDYSDSTEVKFEELKNVKLEEEDEEEEQAAAALDLSVNPASVGGRLVFSGSKKKSSSSLGSGSSRDSISSDSETSEPLSCRAQGQTGVLTVHSYAKGDGRVTVGEPCTRKKGSAARSFSERELAEVADEYMFSLEENKKSKGRRQPLSKLPRHHPLVLQECVSDDETSEQLTPEEEAEETEAWAKPLSQLWQNRPPNFEAEKEFNETMAQQAPHCAVCMIFQTYHQVEFGGFNQNCGNASDLAPQKQRTKPLIPEMCFTSTGCSTDINLSTPYLEEDGTSILVSCKKCSVRVHASCYGVPPAKASEDWMCSRCSANALEEDCCLCSLRGGALQRANDDRWVHVSCAVAILEARFVNIAERSPVDVSKIPLPRFKLKCIFCKKRRKRTAGCCVQCSHGRCPTAFHVSCAQAAGVMMQPDDWPFVVFITCFRHKIPNLERAKGALQSITAGQKVISKHKNGRFYQCEVVRLTTETFYEVNFDDGSFSDNLYPEDIVSQDCLQFGPPAEGEVVQVRWTDGQVYGAKFVASHPIQMYQVEFEDGSQLVVKRDDVYTLDEELPKRVKSRLSVASDMRFNEIFTEKEVKQEKKRQRVINSRYREDYIEPALYRAIME	−	+/−
2A-V319M: KDM4A mutation (protein) MASESETLNPSARIMTFYPTMEEFRNFSRYIAYIESQGAHRAGLAKVVPPKEWKPRASYDDIDDLVIPAPIQQLVTGQSGLFTQYNIQKKAMTVREFRKIANSDKYCTPRYSEFEELERKYWKNLTFNPPIYGADVNGTLYEKHVDEWNIGRLRTILDLVEKESGITIEGVNTPYLYFGMWKTSFAWHTEDMDLYSINYLHFGEPKSWYSVPPEHGKRLERLAKGFFPGSAQSCEAFLRHKMTLISPLMLKKYGIPFDKVTQEAGEFMITFPYGYHAGFNHGFNCAESTNFATRRWIEYGKQAVLCSCRKDMVKISMDMFVRKFQPERYKLWKAGKDNTVIDHTLPTPEAAEFLKESELPPRAGNEEECPEEDMEGVEDGEEGDLKTSLAKHRIGTKRHRVCLEIPQEVSQSELFPKEDLSSEQYEMTECPAALAPVRPTHSSVRQVEDGLTFPDYSDSTEVKFEELKNVKLEEEDEEEEQAAAALDLSVNPASVGGRLVFSGSKKKSSSSLGSGSSRDSISSDSETSEPLSCRAQGQTGVLTVHSYAKGDGRVTVGEPCTRKKGSAARSFSERELAEVADEYMFSLEENKKSKGRRQPLSKLPRHHPLVLQECVSDDETSEQLTPEEEAEETEAWAKPLSQLWQNRPPNFEAEKEFNETMAQQAPHCAVCMIFQTYHQVEFGGFNQNCGNASDLAPQKQRTKPLIPEMCFTSTGCSTDINLSTPYLEEDGTSILVSCKKCSVRVHASCYGVPPAKASEDWMCSRCSANALEEDCCLCSLRGGALQRANDDRWVHVSCAVAILEARFVNIAERSPVDVSKIPLPRFKLKCIFCKKRRKRTAGCCVQCSHGRCPTAFHVSCAQAAGVMMQPDDWPFVVFITCFRHKIPNLERAKGALQSITAGQKVISKHKNGRFYQCEVVRLTTETFYEVNFDDGSFSDNLYPEDIVSQDCLQFGPPAEGEVVQVRWTDGQVYGAKFVASHPIQMYQVEFEDGSQLVVKRDDVYTLDEELPKRVKSRLSVASDMRFNEIFTEKEVKQEKKRQRVINSRYREDYIEPALYRAIME	+	+
2A-P326T: KDM4A mutation (protein) MASESETLNPSARIMTFYPTMEEFRNFSRYIAYIESQGAHRAGLAKVVPPKEWKPRASYDDIDDLVIPAPIQQLVTGQSGLFTQYNIQKKAMTVREFRKIANSDKYCTPRYSEFEELERKYWKNLTFNPPIYGADVNGTLYEKHVDEWNIGRLRTILDLVEKESGITIEGVNTPYLYFGMWKTSFAWHTEDMDLYSINYLHFGEPKSWYSVPPEHGKRLERLAKGFFPGSAQSCEAFLRHKMTLISPLMLKKYGIPFDKVTQEAGEFMITFPYGYHAGFNHGFNCAESTNFATRRWIEYGKQAVLCSCRKDMVKISMDVFVRKFQTERYKLWKAGKDNTVIDHTLPTPEAAEFLKESELPPRAGNEEECPEEDMEGVEDGEEGDLKTSLAKHRIGTKRHRVCLEIPQEVSQSELFPKEDLSSEQYEMTECPAALAPVRPTHSSVRQVEDGLTFPDYSDSTEVKFEELKNVKLEEEDEEEEQAAAALDLSVNPASVGGRLVFSGSKKKSSSSLGSGSSRDSISSDSETSEPLSCRAQGQTGVLTVHSYAKGDGRVTVGEPCTRKKGSAARSFSERELAEVADEYMFSLEENKKSKGRRQPLSKLPRHHPLVLQECVSDDETSEQLTPEEEAEETEAWAKPLSQLWQNRPPNFEAEKEFNETMAQQAPHCAVCMIFQTYHQVEFGGFNQNCGNASDLAPQKQRTKPLIPEMCFTSTGCSTDINLSTPYLEEDGTSILVSCKKCSVRVHASCYGVPPAKASEDWMCSRCSANALEEDCCLCSLRGGALQRANDDRWVHVSCAVAILEARFVNIAERSPVDVSKIPLPRFKLKCIFCKKRRKRTAGCCVQCSHGRCPTAFHVSCAQAAGVMMQPDDWPFVVFITCFRHKIPNLERAKGALQSITAGQKVISKHKNGRFYQCEVVRLTTETFYEVNFDDGSFSDNLYPEDIVSQDCLQFGPPAEGEVVQVRWTDGQVYGAKFVASHPIQMYQVEFEDGSQLVVKRDDVYTLDEELPKRVKSRLSVASDMRFNEIFTEKEVKQEKKRQRVINSRYREDYIEPALYRAIME	+	+
2A-P348L: KDM4A mutation (protein) MASESETLNPSARIMTFYPTMEEFRNFSRYIAYIESQGAHRAGLAKVVPPKEWKPRASYDDIDDLVIPAPIQQLVTGQSGLFTQYNIQKKAMTVREFRKIANSDKYCTPRYSEFEELERKYWKNLTFNPPIYGADVNGTLYEKHVDEWNIGRLRTILDLVEKESGITIEGVNTPYLYFGMWKTSFAWHTEDMDLYSINYLHFGEPKSWYSVPPEHGKRLERLAKGFFPGSAQSCEAFLRHKMTLISPLMLKKYGIPFDKVTQEAGEFMITFPYGYHAGFNHGFNCAESTNFATRRWIEYGKQAVLCSCRKDMVKISMDVFVRKFQPERYKLWKAGKDNTVIDHTLPTLEAAEFLKESELPPRAGNEEECPEEDMEGVEDGEEGDLKTSLAKHRIGTKRHRVCLEIPQEVSQSELFPKEDLSSEQYEMTECPAALAPVRPTHSSVRQVEDGLTFPDYSDSTEVKFEELKNVKLEEEDEEEEQAAAALDLSVNPASVGGRLVFSGSKKKSSSSLGSGSSRDSISSDSETSEPLSCRAQGQTGVLTVHSYAKGDGRVTVGEPCTRKKGSAARSFSERELAEVADEYMFSLEENKKSKGRRQPLSKLPRHHPLVLQECVSDDETSEQLTPEEEAEETEAWAKPLSQLWQNRPPNFEAEKEFNETMAQQAPHCAVCMIFQTYHQVEFGGFNQNCGNASDLAPQKQRTKPLIPEMCFTSTGCSTDINLSTPYLEEDGTSILVSCKKCSVRVHASCYGVPPAKASEDWMCSRCSANALEEDCCLCSLRGGALQRANDDRWVHVSCAVAILEARFVNIAERSPVDVSKIPLPRFKLKCIFCKKRRKRTAGCCVQCSHGRCPTAFHVSCAQAAGVMMQPDDWPFVVFITCFRHKIPNLERAKGALQSITAGQKVISKHKNGRFYQCEVVRLTTETFYEVNFDDGSFSDNLYPEDIVSQDCLQFGPPAEGEVVQVRWTDGQVYGAKFVASHPIQMYQVEFEDGSQLVVKRDDVYTLDEELPKRVKSRLSVASDMRFNEIFTEKEVKQEKKRQRVINSRYREDYIEPALYRAIME	+	+
2A-E368K: KDM4A mutation (protein) MASESETLNPSARIMTFYPTMEEFRNFSRYIAYIESQGAHRAGLAKVVPPKEWKPRASYDDIDDLVIPAPIQQLVTGQSGLFTQYNIQKKAMTVREFRKIANSDKYCTPRYSEFEELERKYWKNLTFNPPIYGADVNGTLYEKHVDEWNIGRLRTILDLVEKESGITIEGVNTPYLYFGMWKTSFAWHTEDMDLYSINYLHFGEPKSWYSVPPEHGKRLERLAKGFFPGSAQSCEAFLRHKMTLISPLMLKKYGIPFDKVTQEAGEFMITFPYGYHAGFNHGFNCAESTNFATRRWIEYGKQAVLCSCRKDMVKISMDVFVRKFQPERYKLWKAGKDNTVIDHTLPTPEAAEFLKESELPPRAGNEEKCPEEDMEGVEDGEEGDLKTSLAKHRIGTKRHRVCLEIPQEVSQSELFPKEDLSSEQYEMTECPAALAPVRPTHSSVRQVEDGLTFPDYSDSTEVKFEELKNVKLEEEDEEEEQAAAALDLSVNPASVGGRLVFSGSKKKSSSSLGSGSSRDSISSDSETSEPLSCRAQGQTGVLTVHSYAKGDGRVTVGEPCTRKKGSAARSFSERELAEVADEYMFSLEENKKSKGRRQPLSKLPRHHPLVLQECVSDDETSEQLTPEEEAEETEAWAKPLSQLWQNRPPNFEAEKEFNETMAQQAPHCAVCMIFQTYHQVEFGGFNQNCGNASDLAPQKQRTKPLIPEMCFTSTGCSTDINLSTPYLEEDGTSILVSCKKCSVRVHASCYGVPPAKASEDWMCSRCSANALEEDCCLCSLRGGALQRANDDRWVHVSCAVAILEARFVNIAERSPVDVSKIPLPRFKLKCIFCKKRRKRTAGCCVQCSHGRCPTAFHVSCAQAAGVMMQPDDWPFVVFITCFRHKIPNLERAKGALQSITAGQKVISKHKNGRFYQCEVVRLTTETFYEVNFDDGSFSDNLYPEDIVSQDCLQFGPPAEGEVVQVRWTDGQVYGAKFVASHPIQMYQVEFEDGSQLVVKRDDVYTLDEELPKRVKSRLSVASDMRFNEIFTEKEVKQEKKRQRVINSRYREDYIEPALYRAIME	+	+

From patent publication US20160113911A1, “METHODS AND COMPOSITIONS FOR THE TREATMENT OF CANCER” (THE GENERAL HOSPITAL CORPORATION, priority 2013, published 2016)
